The results in this text go back to patent US20190194291A1 (Hoffmann-La Roche, published 2019).

One may read the EC50 as the concentration needed to bring the measured effect to its halfway point. Low readings indicate a more potent agent, high ones a less potent agent. By Kd is commonly meant the equilibrium constant for the complex coming apart. What is called koff is a measure of how fast the partners let go of each other. Higher therefore signals a short-lived complex.

For one assay, the target named is T1, cyCD19 ECD (cynomolgus, UniProt A0A2K5W8L9 20-292).
T1 construct: extracellular domain; also called cynomolgus CD19 extracellular domain; cynomolgus CD19
T1 sequence: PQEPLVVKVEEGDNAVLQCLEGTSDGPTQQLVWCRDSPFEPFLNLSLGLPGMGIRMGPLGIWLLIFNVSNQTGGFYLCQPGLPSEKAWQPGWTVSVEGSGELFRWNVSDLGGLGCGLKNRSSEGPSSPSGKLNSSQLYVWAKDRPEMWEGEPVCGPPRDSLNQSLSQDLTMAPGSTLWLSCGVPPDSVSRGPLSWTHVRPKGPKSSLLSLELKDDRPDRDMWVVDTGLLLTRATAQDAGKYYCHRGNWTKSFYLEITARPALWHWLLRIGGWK
Briefly: binding to CD19 ECD, method not stated.

Assay [1] has as its target T2, human CD19 (antigen of Table 9, construct not stated) (human, UniProt P15391 20-291, limits assumed).
T2 sequence: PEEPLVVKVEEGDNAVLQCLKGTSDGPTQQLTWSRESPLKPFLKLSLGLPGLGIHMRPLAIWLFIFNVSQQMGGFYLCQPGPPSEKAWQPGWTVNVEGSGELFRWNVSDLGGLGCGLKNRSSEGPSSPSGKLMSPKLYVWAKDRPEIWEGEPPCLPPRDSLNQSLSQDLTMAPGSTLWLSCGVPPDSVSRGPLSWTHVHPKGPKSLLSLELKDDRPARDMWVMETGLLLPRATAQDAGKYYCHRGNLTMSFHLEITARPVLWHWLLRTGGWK
Briefly: BIAcore (SPR), format not stated. In general terms: Surface plasmon resonance follows binding to a sensor surface in real time, without labels.

Assay [2] deals with T2, human CD19 (antigen of Table 9, …). Briefly: listed under the BIAcore KD; taken as half-life of the complex.
The next assay addresses T3, huCD19 ECD (human, UniProt P15391 20-291).
T3 construct: also called human CD19 extracellular domain
T3 sequence: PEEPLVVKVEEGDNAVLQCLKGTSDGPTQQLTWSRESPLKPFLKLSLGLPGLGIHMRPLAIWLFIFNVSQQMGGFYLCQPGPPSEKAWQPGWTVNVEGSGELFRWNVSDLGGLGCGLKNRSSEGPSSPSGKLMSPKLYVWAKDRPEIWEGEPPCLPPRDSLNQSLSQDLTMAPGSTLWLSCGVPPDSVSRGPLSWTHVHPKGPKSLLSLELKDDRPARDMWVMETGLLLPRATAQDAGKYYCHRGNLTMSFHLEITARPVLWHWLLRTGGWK
Briefly: binding to CD19 ECD, method not stated.

Assay [3] addresses T4, monomeric human CD19 antigen Fc(kih) fusion molecule (human, UniProt P0DOX5 223-449 = IgG part).
T4 construct: Heterodimeric Fc fusion with a single copy of the CD19 ectodomain; also called human CD19 Fc(kih); Recombinant human CD19
Briefly: SPR (ProteOn XPR36): Fab from bacterial supernatant captured on anti-human Fab antibody, monomeric CD19-Fc 150-6 nM as analyte, 1:1 Langmuir fit. On the procedure: In order to further characterize the ELISA-positive clones, the off-rate was measured by surface plasmon resonance and compared with the parental humanized clone 8B8.
For this experiment, 7000 RU of polyclonal anti-human Fab antibody were immobilized on all 6 channels of a GLM chip by Amine coupling (NaAcetate pH4.5, 25 μl/min, 240 s) (vertical orientation). Each antibody-containing bacterial supernatant was filtered and 2-fold diluted with PBS, and then injected for 360 s at 25 μl/minute to achieve immobilization levels of between 100 and 400 response units (RU) in vertical orientation. […] Regeneration was performed by two pulses of 10 mM glycine pH 1.5 and 50 mM NaOH for 30 s at 90 ul/min (horizontal orientation). Dissociation rate constants (koff) were calculated using a simple one-to-one Langmuir binding model in ProteOn Manager v3.1 software by simultaneously fitting the sensorgrams. […] The variable domains of the corresponding phagemids were sequenced.

Assay [4] deals with T5, human CEA expressed on MKN45 cells (human, UniProt P06731 35-685).
T5 construct: also called CEA-expressing human gastric adenocarcinoma cells (MKN45)
T5 sequence: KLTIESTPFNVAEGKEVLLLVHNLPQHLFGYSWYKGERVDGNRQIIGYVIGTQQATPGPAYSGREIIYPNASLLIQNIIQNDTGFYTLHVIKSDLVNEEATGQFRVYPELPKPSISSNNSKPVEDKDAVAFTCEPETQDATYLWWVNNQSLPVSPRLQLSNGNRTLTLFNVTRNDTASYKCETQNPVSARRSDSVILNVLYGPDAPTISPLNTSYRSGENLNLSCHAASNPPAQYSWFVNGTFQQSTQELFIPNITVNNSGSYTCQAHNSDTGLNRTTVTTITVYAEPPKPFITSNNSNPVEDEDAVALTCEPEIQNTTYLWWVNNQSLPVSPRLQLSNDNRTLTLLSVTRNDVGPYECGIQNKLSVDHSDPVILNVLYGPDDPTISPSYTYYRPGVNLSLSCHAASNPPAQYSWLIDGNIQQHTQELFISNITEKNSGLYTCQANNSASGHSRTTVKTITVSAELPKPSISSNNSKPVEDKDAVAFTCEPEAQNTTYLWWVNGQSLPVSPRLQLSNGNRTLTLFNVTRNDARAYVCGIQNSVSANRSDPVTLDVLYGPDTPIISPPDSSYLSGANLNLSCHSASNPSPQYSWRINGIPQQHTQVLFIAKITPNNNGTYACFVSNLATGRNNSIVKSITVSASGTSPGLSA
Put plainly: flow cytometry on CEA-expressing MKN45 cells, PE anti-human IgG Fc detection. On the procedure: The binding of different humanized variants of T84.66 IgG was tested on CEA-expressing human gastric adenocarcinoma cells (MKN45, DSMZ ACC 409).
Cells were harvested, counted, checked for viability and re-suspended at 2×10⁶ cells/ml in FACS buffer (100 μl PBS 0.1% BSA). […] Binding curves and EC50 values were obtained and calculated using GraphPadPrism5.
For orientation: Flow cytometry measures light scatter and fluorescence of single cells or particles in a stream.

B1: wild-type humanized anti-human CD19 antibody 8B8 (antibody, V domains shown)
VH: QVQLVQSGAEVKKPGASVKVSCKASGYTFTDYIMHWVRQAPGQGLEWMGYINPYNDGSKYTEKFNGRVTMTSDTSISTAYMELSRLRSDDTAVYYCARGTYYYGSALFDYWGQGTTVTVSS
VL: DIVMTQTPLSLSVTPGQPASISCKSSQSLENSNGNTYLNWYLQKPGQSPQLLIYRVSKRFSGVPDRFSGSGSGTDFTLKISRVEAEDVGVYYCLQLTHVPYTFGQGTKLEIK
Molecule B1 returned an EC50 with cyCD19 ECD of 0.313 µg/mL.

B2: humanized anti-human CD19 antibody clone 8B8-018 (antibody, V domains shown)
VH: QVQLVQSGAEVKKPGASVKVSCKASGYTFTDYIMHWVRQAPGQGLEWMGYINPYNDGSKYTEKFQGRVTMTSDTSISTAYMELSRLRSDDTAVYYCARGTYYYGSALFDYWGQGTTVTVSS
VL: DIVMTQTPLSLSVTPGQPASISCKSSQSLENPNGNTYLNWYLQKPGQSPQLLIYRVSKRFSGVPDRFSGSGSGTDFTLKISRVEAEDVGVYYCLQLTHVPYTFGQGTKLEIK
Consider B2, for which, in assay [1], the equilibrium dissociation constant (Kd) worked out at 6 nM. The “t1/2” value in assay [2] is 43.6 min. The values for the EC50 with cyCD19 ECD and with huCD19 ECD were 0.255 µg/mL and 0.084 µg/mL, respectively.

B3: parental humanized clone 8B8 (Fab in bacterial supernatant) (Fab, V domains shown)
VH: QVQLVQSGAEVKKPGASVKVSCKASGYTFTDYIMHWVRQAPGQGLEWMGYINPYNDGSKYTEKFQGRVTMTSDTSISTAYMELSRLRSDDTAVYYCARGTYYYGSALFDYWGQGTTVTVSS
VL: DIVMTQTPLSLSVTPGQPASISCKSSQSLENSNGNTYLNWYLQKPGQSPQLLIYRVSKRFSGVPDRFSGSGSGTDFTLKISRVEAEDVGVYYCLQLTHVPYTFGQGTKLEIK
notes: Soluble Fab with Flag tag from a phagemid, tested as bacterial supernatant; also called Parental 8B8; humanized parental clone 8B8
With B3, the koff in assay [3] is 0.000301 s⁻¹.

B4: affinity-matured 8B8-derived clone 2B11 (Fab in bacterial supernatant) (Fab, V domains shown)
VH: QVQLVQSGAEVKKPGASVKVSCKASGYTFTDYIMHWVRQAPGQGLEWMGYINPYNDGSKYTEKFQGRVTMTSDTSISTAYMELSRLRSDDTAVYYCARGTYYYGPQLFDYWGQGTTVTVSS
VL: DIVMTQTPLSLSVTPGQPASISCKSSQSLETSTGTTYLNWYLQKPGQSPQLLIYRVSKRFSGVPDRFSGSGSGTDFTLKISRVEAEDVGVYYCLQLLEDPYTFGQGTKLEIK
notes: Soluble Fab with Flag tag, tested as bacterial supernatant; also called 8B8-2B11
For B4, the koff in assay [3] was 4.37e-06 s⁻¹.

B5: Humanized variant 1 of T84.66 IgG (T84.66-LCHA) (antibody, V domains shown)
VH: QVQLVQSGAEVKKPGSSVKVSCKASGFNIKDTYMHWVRQAPGQGLEWMGRIDPANGNSKYVPKFQGRVTITADTSTSTAYMELSSLRSEDTAVYYCAPFGYYVSDYAMAYWGQGTLVTVSS
VL: EIVLTQSPATLSLSPGERATLSCRAGESVDIFGVGFLHWYQQKPGQAPRLLIYRASNRATGIPARFSGSGSGTDFTLTISSLEPEDFAVYYCQQTNEDPYTFGQGTKLEIK
notes: Tested as IgG
Take B5: the EC50 in assay [4] is 1.5 µg/mL.
